Drawing on patent publication US20130137856A1, “PROTEIN BINDING DOMAINS STABILIZING FUNCTIONAL CONFORMATIONAL STATES OF GPCRS AND USES THEREOF” (priority 2010, published 2013), this text covers High affinity state Ki of (-)-isoproterenol, [3H]-DHA competition binding, β2AR-T4L in HDL particles + 1 µM NB80 (β2AR-T4L alone: 33.5) and fold increase of the affinity of isoproterenol for one molecule.

The experiment deals with β2AR-T4L (β2AR with the third intracellular loop replaced by T4 lysozyme, truncated at position 365) (human) (UniProt P07550). Kind of experiment: cell-based or functional assay.

B1: Nanobody-80 (Nb80) (VHH, not shown: small tags and cut ends)
VHH: QVQLQESGGGLVQAGGSLRLSCAASGSIFSINTMGWYRQAPGKQRELVAAIHSGGSTNYANSVKGRFTISRDNAANTVYLQMNSLKPEDTAVYYCNVKDYGAVLYEYDYWGQGTQVTVSS
With B1, the High affinity state Ki of (-)-isoproterenol, [3H]-DHA competition binding, β2AR-T4L in HDL particles + 1 µM NB80 (β2AR-T4L alone: 33.5) was 0.56 nM and the fold increase of the affinity of isoproterenol was determined as 60 fold.
